The values below come from the supplement of paper PMC10598134.

A short description of this data set: collision cross section of modified peptide (TIMS, N2, iRT-aligned); higher = larger / more extended gas-phase ion. The gist of the method: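 Collision cross section values rest on the Mason-Schamp equation applied to calibrated, run-aligned mobility data from synthetic peptides. Mobility (1/K0) was calibrated with three reference ions and aligned per run to the median iRT peptide deviation, and 1–3 technical replicates of the most abundant feature per charge state were averaged. Data came from a timsTOF Pro/HT in dda-PASEF mode (nitrogen, ~2.4 mbar) after a 120-min nanoflow C18 gradient at 60 °C.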

Setting [1] is: charge state: 2, modification: Acetyl (K).
Where [2] appears, read: charge state: 3, modification: Acetyl (K).
[3] abbreviates: charge state: 2, modification: Dimethyl (K).
The mark [4] stands for this setting: charge state: 3, modification: Dimethyl (K).
[5] abbreviates: charge state: 2, modification: Glutarylation.
The mark [6] stands for this setting: charge state: 2, modification: Formyl.
[7] abbreviates: charge state: 3, modification: Formyl.
Where [8] appears, read: charge state: 2, modification: Malonyl.
Setting [9] is: charge state: 3, modification: Malonyl.
The mark [10] stands for this setting: charge state: 2, modification: Propionyl.
The mark [11] stands for this setting: charge state: 2, modification: Methyl (K).
[12] abbreviates: charge state: 3, modification: Methyl (K).
The mark [13] stands for this setting: charge state: 2, modification: HexNAc (ST).
[14] abbreviates: charge state: 2, modification: Butyryl.
[15] abbreviates: charge state: 3, modification: Butyryl.
[16] abbreviates: charge state: 2, modification: hydroxyisobutyryl.
[17] abbreviates: charge state: 2, modification: Crotonyl.
Where [18] appears, read: charge state: 3, modification: Crotonyl.
Where [19] appears, read: charge state: 2, modification: Succinyl.
The mark [20] stands for this setting: charge state: 3, modification: Methyl (R).
Where [21] appears, read: charge state: 2, modification: Citrullination (R).
Where [22] appears, read: charge state: 2, modification: Biotin.
[23] abbreviates: charge state: 3, modification: Biotin.
Where [24] appears, read: charge state: 2, modification: GlyGly (K).
Where [25] appears, read: charge state: 3, modification: GlyGly (K).
[26] abbreviates: charge state: 2, modification: Phospho (Y).
[27] abbreviates: charge state: 3, modification: Citrullination (R).
Setting [28] is: charge state: 2, modification: Nitro (Y).

± gives the standard deviation.

Turning to “VFIGNLNTLVVKK [_VFIGNLNTLVVK(Acetyl (K))K_]”, the collision cross section was 409.46 ± 1.7 Å² under setting [1] and 485 Å² under setting [2].

Regarding IGNSYFKEEK [_IGNSYFK(Dimethyl (K))EEK_], the collision cross section is, setting by setting: under setting [3], 384.15 ± 0.26 Å²; under setting [4], 447.26 ± 3 Å².

Under setting [5], “PGGEGPQCEKTTDVK [_PGGEGPQCEK(Gluratylation)TTDVK_]” showed a collision cross section of 428.07 ± 0.56 Å².

In turn, “GEVGAGAGPGAQAGPSAKR [_GEVGAGAGPGAQAGPSAK(Formyl)R_]” registered a collision cross section under setting [6] of 415.62 ± 0.18 Å² and a collision cross section under setting [7] of 470.58 ± 2.9 Å².

With “VGVEVPDVNIEGPEGKLK [_VGVEVPDVNIEGPEGK(Acetyl (K))LK_]”, the collision cross section turned out to be 456.04 ± 2.4 Å² under setting [1] and 513.89 Å² under setting [2].

In turn, “VTLEVGKVIQQGR [_VTLEVGK(Malonyl)VIQQGR_]” displayed a collision cross section under setting [8] of 413.16 ± 1.2 Å² and a collision cross section under setting [9] of 480.87 ± 1.8 Å².

Regarding “DTGEKLTVAENEAETK [_DTGEK(Propionyl)LTVAENEAETK_]”, the collision cross section under setting [10] stood at 443.51 Å².

With “DDSFLGKLGGTLAR [_DDSFLGK(Methyl (K))LGGTLAR_]”, the collision cross section reads like this: under setting [11], 408.16 ± 0.81 Å²; under setting [12], 476.22 ± 3.5 Å².

In the case of “FSAYIKNSNPALNDNLEK [_FSAYIK(Methyl (K))NSNPALNDNLEK_]”, the collision cross section runs as follows: under setting [11], 493.27 Å²; under setting [12], 508.45 ± 2.8 Å².

Regarding “SYISSQTNDTHK [_SYIS(HexNAc (ST))SQTNDTHK_]”, for the setting “charge state: 3, modification: HexNAc (ST)”, the collision cross section amounted to 474.05 ± 0.17 Å².

“SGKFTQQDIDEAK [_SGK(Gluratylation)FTQQDIDEAK_]” showed a collision cross section under setting [5] of 415.95 ± 0.14 Å².

Under setting [8], “FLQEFYQDDELGKK [_FLQEFYQDDELGK(Malonyl)K_]” had a collision cross section of 451.48 ± 0.99 Å².

On to “EGFSIPVSADGFK [_EGFSIPVS(HexNAc (ST))ADGFK_]”, for which the collision cross section under setting [13] amounted to 412.81 ± 0.62 Å².

“DASTLQSQKAEGTGDAK [_DASTLQSQK(Butyryl)AEGTGDAK_]”: the collision cross section under setting [14] is listed as 440.14 ± 0.24 Å² and the collision cross section under setting [15] was found to be 511.91 ± 3.5 Å².

“SVGGSGGGSFGDNLVTR [_SVGGSGGGSFGDNLVT(HexNAc (ST))R_]” showed a collision cross section under setting [13] of 423.68 ± 0.13 Å².

Under setting [16], “YEEIVKEVSTYIK [_YEEIVK(hydroxyisobutyryl)EVSTYIK_]” returned a collision cross section of 436.97 ± 5 Å².

As to KYEEIDNAPEER [_K(Crotonyl)YEEIDNAPEER_], the collision cross section under setting [17] came to 413.83 ± 0.55 Å² and the collision cross section under setting [18] was 493.07 ± 1.6 Å².

Under setting [19], “DTPTSAGPNSFNKGK [_DTPTSAGPNSFNK(Succinyl)GK_]” returned a collision cross section of 411.39 ± 1.1 Å².

With “ANLEKAQAELVGTADEATR [_ANLEK(Succinyl)AQAELVGTADEATR_]”, the collision cross section came to 479.08 ± 0.78 Å² under setting [19] and 580.29 ± 0.37 Å² (charge state: 3, modification: Succinyl).

In the case of “GRGAAAAGGPQR [_GR(Methyl (R))GAAAAGGPQR_]”, the collision cross section runs as follows: (charge state: 2, modification: Methyl (R)) 338.98 ± 2.7 Å²; under setting [20], 434.02 ± 3.5 Å².

Turning to “LRQQLQAK [_LR(Citrullination (R))QQLQAK_]”, under setting [21], the collision cross section is on record as 337.45 ± 0.28 Å².

Sequence “IPQEKCILQTDVK [_IPQEK(Crotonyl)CILQTDVK_]” had a collision cross section under setting [17] of 433.54 Å².

For “KYEEIDNAPEER [_K(Trimethyl (K))YEEIDNAPEER_]”, the collision cross section reads like this: (charge state: 2, modification: Trimethyl (K)) 405.59 ± 0.61 Å²; (charge state: 3, modification: Trimethyl (K)) 490.14 ± 2.4 Å².

Regarding “TGPPGSTGSR [_TGPP(Hydroxyproline)GSTGSR_]”, the collision cross section (charge state: 2, modification: Hydroxyproline) worked out at 312.97 ± 0.79 Å².

The sequence ASEALLKQLK [_ASEALLK(Methyl (K))QLK_] had a collision cross section under setting [11] of 369.33 ± 0.7 Å² and a collision cross section under setting [12] of 450.1 ± 3.1 Å².

In turn, “VFIGNLNTLVVKK [_VFIGNLNTLVVK(Gluratylation)K_]” gave a collision cross section under setting [5] of 424.62 ± 0.97 Å² and a collision cross section (charge state: 3, modification: Glutarylation) of 495.12 ± 1.7 Å².

Regarding “ITLSKHQNVQLPR [_ITLSK(Butyryl)HQNVQLPR_]”, the collision cross section under setting [14] amounted to 443.37 ± 0.53 Å² and the collision cross section under setting [15] was determined as 503.02 ± 28 Å².

Consider “SGNLTEDDKHNNAK [_SGNLTEDDK(Butyryl)HNNAK_]”, for which the collision cross section by setting is: under setting [14], 425.09 ± 0.55 Å²; under setting [15], 472.83 ± 2.7 Å².

Regarding “VSPASSVDSNIPSSQGYKK [_VSPASSVDSNIPSSQGYK(Biotin)K_]”, the collision cross section is, setting by setting: under setting [22], 474.43 Å²; under setting [23], 539.94 ± 1.6 Å².

“GTISAPGKVVTAAAQAK [_GTISAPGK(GlyGly (K))VVTAAAQAK_]” displayed a collision cross section under setting [24] of 456.01 ± 1.6 Å² and a collision cross section under setting [25] of 541.49 ± 0.36 Å².

For the sequence “LGVATVAKGVCGACK [_LGVATVAK(Methyl (K))GVCGACK_]”, the collision cross section under setting [11] worked out at 433.3 ± 0.37 Å² and the collision cross section under setting [12] came to 457.05 ± 3.9 Å².

Turning to “GFALVGVGSEASSKK [_GFALVGVGSEASSK(Formyl)K_]”, the collision cross section runs as follows: under setting [6], 409.61 ± 2 Å²; under setting [7], 498.32 ± 1.8 Å².

On to “PANEKATDDYHYEK [_PANEK(Butyryl)ATDDYHYEK_]”, for which the collision cross section is given as 443.05 ± 0.53 Å² under setting [14] and 509.24 ± 1.8 Å² under setting [15].

With “DESFLGKLGGTLAR [_DESFLGK(Biotin)LGGTLAR_]”, the collision cross section reads like this: under setting [22], 424.81 Å²; under setting [23], 506.47 Å².

“TQDQISNIKYHEEFEK [_TQDQISNIK(Malonyl)YHEEFEK_]”: the collision cross section under setting [9] is recorded as 548.96 ± 0.016 Å².

With “GGPGSTLSFVGKR [_GGPGSTLSFVGK(Crotonyl)R_]”, the collision cross section by setting is: under setting [17], 386.64 ± 0.27 Å²; under setting [18], 427.61 ± 1.6 Å².

In the case of “VFSIISSEKELK [_VFSIISSEK(Gluratylation)ELK_]”, the collision cross section under setting [5] turned out to be 415.44 ± 1.1 Å².

Under setting [20], “YSRGAGLGFSTAPNK [_YSR(Methyl (R))GAGLGFSTAPNK_]” registered a collision cross section of 478.19 ± 2.5 Å².

With “FDDTNPEKEEAK [_FDDTNPEK(Dimethyl (K))EEAK_]”, the collision cross section was determined as 399.09 ± 0.55 Å² under setting [3] and 487.33 ± 2.2 Å² under setting [4].

Under setting [26], TEVNSGFFYK [_TEVNSGFFY(Phospho (Y))K_] came in with a collision cross section of 373.38 ± 0.68 Å².

Consider “SGGGYGGDRGGGYGGDR [_SGGGYGGDR(Citrullination (R))GGGYGGDR_]”, for which the collision cross section by setting is: under setting [21], 393.58 ± 0.28 Å²; under setting [27], 470.6 ± 4.1 Å².

“LDINTNTYTSQDLK [_LDINTNTYTS(HexNAc (ST))QDLK_]” displayed a collision cross section under setting [13] of 444.16 ± 0.035 Å².

In the case of “VPTTEKPTVTVNFR [_VPTTEK(Formyl)PTVTVNFR_]”, the collision cross section was determined as 425.05 ± 5 Å² under setting [6] and 502.93 ± 1.3 Å² under setting [7].

“ASDTSSETVFGKR [_ASDTSSETVFGK(Propionyl)R_]”: the collision cross section by setting is: under setting [10], 398.28 ± 0.65 Å²; (charge state: 3, modification: Propionyl) 481.99 Å².

For STCTYVGAAK [_STCTY(Nitro (Y))VGAAK_], the collision cross section under setting [28] stood at 340.86 ± 0.72 Å².

In the case of “GRGYFEHR [_GR(Citrullination (R))GYFEHR_]”, the collision cross section runs as follows: under setting [21], 339.49 ± 1.6 Å²; under setting [27], 411.67 ± 1.3 Å².

Take “LGVATVAKGVCGACK [_LGVATVAK(Malonyl)GVCGACK_]”: the collision cross section is listed as 416.08 ± 0.71 Å² under setting [8] and 487.74 Å² under setting [9].

On to “SLGEPAAGEGSAKR [_SLGEPAAGEGSAK(Biotin)R_]”, for which, under setting [22], the collision cross section is 403.03 Å².

“TEVLSPNSKVESK [_TEVLSPNSK(GlyGly (K))VESK_]” showed a collision cross section under setting [24] of 404.73 ± 5.7 Å² and a collision cross section under setting [25] of 492.13 ± 0.88 Å².

Turning to “GEVGAGAGPGAQAGPSAKR [_GEVGAGAGPGAQAGPSAK(Malonyl)R_]”, the collision cross section turned out to be 415.94 ± 0.58 Å² under setting [8] and 468.8 ± 1.8 Å² under setting [9].

For the sequence AQSYAQQLGR [_AQSY(Phospho (Y))AQQLGR_], the collision cross section under setting [26] stood at 354.7 ± 0.065 Å².

In the case of LEQVEKELLR [_LEQVEK(Dimethyl (K))ELLR_], the collision cross section is, setting by setting: under setting [3], 388.36 ± 0.25 Å²; under setting [4], 444.88 ± 2.1 Å².

In the case of “SSFAYKDQNENR [_SSFAYK(Acetyl (K))DQNENR_]”, the collision cross section under setting [1] stood at 398.41 ± 1.4 Å² and the collision cross section under setting [2] is listed as 457.8 ± 0.27 Å².

Regarding “FGYVDFESAEDLEK [_FGY(Nitro (Y))VDFESAEDLEK_]”, the collision cross section under setting [28] is reported as 424.66 Å².

Take “DLSTVEALQNLKNLK [_DLSTVEALQNLK(hydroxyisobutyryl)NLK_]”: the collision cross section runs as follows: under setting [16], 486.36 ± 1.3 Å²; (charge state: 3, modification: hydroxyisobutyryl) 549.84 ± 1.8 Å².

In turn, IQTKAGEATVK [_IQTK(Crotonyl)AGEATVK_] returned a collision cross section under setting [17] of 371.41 ± 0.56 Å².
